# Measured values taken from the nanobody polyreactivity screen of Harvey et al. (2022).
# Test: yeast display, Sf9 membrane polyspecificity reagent, FACS + sequencing; frameworks hold sequencing errors
# Outline: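 A synthetic nanobody library was expressed on Saccharomyces cerevisiae BJ5465 by galactose induction for 36–48 hours. The library was stained for 1 hour at 4 °C with 10% biotinylated, detergent-solubilized Sf9 membrane reagent and enriched with streptavidin microbeads before FACS. Low and high (top ~1%) gates were set on anti-HA fluorescence for expression and streptavidin fluorescence for reagent binding, and each polyreactivity label reflects the gate of origin.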
row,Sequence,polyreactivity (PSR sort gate)
1,QVQLVESGGGLVQAGGSLRLSCAASGITFNYYAMGWYRQAPGKEREFVAAITRSGGRTYYADSVKGRFTISRDNAKNTVYLQMNSLKPEDTAVYYCAAGYYILYIWKFDYWGQGTQVTVSS,high polyreactivity
2,QVQLVESGGGLVQAGGSLRLSCAASGITFNYYAMGWYRQAPGKERELVAVISSSGGRTYYADSVKGRFTISRDNAKNTVYFQMNSLKPEDTAVYYCGAGCSVAFYYWGQGTQVTVSS,high polyreactivity
3,QVQLVESGGGLVQAGGSLRLSCAASGITFNYYTMVWYRQAPGKERELVARITISGGSTYYADSVKGRFTISRDNAKNTVDFQMYSLKPEDTAVYYCNVRLYGYRHDYWGQGTQVTVSS,high polyreactivity
4,QVQLVESGGGLVQAGGSLRLSCAASGITFPANAMGWYRQAPGKERELVAAISTSGGSTYYADSVKGRFTISRDNAKNTVYLQMNSLKPEDTAVYYCAATIYPYYSLYSHYYWGQCTQVTVSS,high polyreactivity
5,QVQLVESGGGLVQAGGSLRLSCAASGITFPDYDMGWYRQAPGKERELVAAITYRSGSTYYADSVKGRFTISRDNAKNTVYLQMNSLKPEDTAVYYCAATVRGVGYRYYYWGQGTQVTVSS,high polyreactivity
6,QVQLVESGGGLVQAGGSLRLSCAASGITFPFYAMGWYRQAPGKERELVAGITSGGSTYYADSVKGRFTISRDNAKNTVYLQMNSLKPEDTAVYYCAAPFYRQSLIEYDFWGQGTQVTVSS,high polyreactivity
7,QVQLVESGGGLVQAGGSLRLSCAASGITFPGNVMGWYRQAPGKERELVAAISTSGGSTYYADSVKGRFTISRDNAKNTVYLQMNSLKPEDTAVYYCARQYIRSSYGYWGQGTQVTVSS,low polyreactivity
8,QVQLVESGGGLVQAGGSLRLSCAASGITFPGYAMGWYRQAPGKERELVAAIDRSGDGTYYADSVKGRFTISRDNAKNTVYLQMNSLKPEDPAVYYCAKDNYPNHSTVLAVIYDYWGQGTQVTVSS,low polyreactivity
9,QVQLVESGGGLVQAGGSLRLSCAASGITFPGYAMGWYTQAPGKERELVAVIRKSGTSTYYADSVKGRFTISRDNAKNTVYLQMNSLKPEDTAVYYCAAGGPSTLDDYWGQGTQVTVSS,low polyreactivity
10,QVQLVESGGGLVQAGGSLRLSCAASGITFPLYVLGWYRQAPGKDRELVAAISASGGSTYADSVKGRFTISRDNAKNTVYFQMNSLKTEVTAVYYCNADVYVGYEYDYWGQGTQVTVSS,low polyreactivity
11,QVQLVESGGGLVQAGGSLRLSCAASGITFPRNAMGWYRQAPGKERELVAAISARGGNTYYADSVKGRFTISRDNSKNNVYLQMNSLKPEDTAVYFCNALGSSYSEPSEYDYWGQGTQVTVSS,low polyreactivity
12,QVQLVESGGGLVQAGGSLRLSCAASGITFPRYAMGGYRPAPGKERELVATITRTGRTNYADSVKGRFTISRDNAKNTVYLQKNSLKPEDTPVYYCAARNRRERKGKMDYWGQGTQVTVSS,high polyreactivity
13,QVQLVESGGGLVQAGGSLRLSCAASGITFPWYAMGWYRQAPGKERELVAAISSDADTYYADSVKGRFTISRDNAKNTVYLQMISLKPEDTAVYYCAAETFDYSRGYTAMGYWGQGTQVTVSS,high polyreactivity
14,QVQLVESGGGLVQAGGSLRLSCAASGITFPYYAMGWDRQAPGKERELVAAISSSGGSTYYADSVKGRFTISRDNAKNTVYLQMNSLKPEDTAVYYCAAQRYINYDYWGQGTQVTVSS,high polyreactivity
15,QVQLVESGGGLVQAGGSLRLSCAASGITFPYYAMGWYRQAPGKERELVAAISSGGSTNYADSVKGRFTISRDNAKNTVYLQMNSLKPEDTAVYYCNADVRSYFYDYWGQGTQVTVSS,low polyreactivity
16,QVQLVESGGGLVQAGGSLRLSCAASGITFQLYAMGWYRQAPGKERELVAAIDASGGITNYADSVKGRFTISRDNAKNTVYLQMNSLKPEDTAVYYCASFFKLRYRYQFWRYGFGYWGQGTQVTVSS,high polyreactivity
17,QVQLVESGGGLVQAGGSLRLSCAASGITFQWYTMGWYRQAPGKERELVATISSGGSTNYADSVKGRFTISRDNAKNTVYLQMNSLKPEDTPVYYCAAYDYISSTYFLDEYWGQGTQVTVSS,low polyreactivity
18,QVQLVESGGGLVQAGGSLRLSCAASGITFQYNAMGWYRQAPGKERELVATIRRGGITKYADSVKGRFTISRDNAKNTVSLQMNSLKPEDSAVYYCAADFWYYQYPYGGGGYWGQGTQVTVSS,low polyreactivity
19,QVQLVESGGGLVQAGGSLRLSCAASGITFQYYAMGWYRQAPGKERELVAAITKRGGSTYYADSVKGRFTISRDNAKNTVYLQMTSLKPEETAVYYCAADLGGNSRLDYWGQGTQVTVSS,high polyreactivity
20,QVQLVESGGGLVQAGGSLRLSCAASGITFRCNAMGWYRQAPGKERELVASITGGTDTYYADSVKGRFTISRDNAKKTVYLQMNSLKPEASAVYYCAAPSNQYFRYKRRYYYWGQGTQVTVSS,high polyreactivity
21,QVQLVESGGGLVQAGGSLRLSCAASGITFRFNAMGWYRQAPGKEREFVAAITYSGDSTYYADSVKGRFTISRDNAKNTVYLQMNSLKPEDTAVYYCAADYYAISRRIFYYWGQGTQVTVSS,low polyreactivity
